Experimental data as given in patent US20220381793A1, “COMPOSITIONS AND METHODS FOR IDENTIFYING MHC-II BINDING PEPTIDES” (priority 2021, published 2022).

Experiments:
[1] = biological target: T1, “empty” DR4 (DRA*01:01/DRB1*04:01) on yeast (Homo sapiens, UniProt P01903+P01911); assay: RIPPA competition assay, yeast displaying “empty” DR4, SARS-CoV-2 S peptides; assay type: binding; settings: 200 μM competitor vs 20 μM Bio-HA306-318, pH 5.0, 30° C., 20 hours
T1 construct: the α chain ectodomain, with or without the Jun motif, was designed to be secreted from yeast; the DR4 β chain ectodomain, with or without the Fos motif, was engineered to the upstream of yeast AGA2 gene; Syn-pre-pro leader (secretion leader) (N); expressed in transfected cells; host or cells: Saccharomyces cerevisiae EBY100, surface display via Aga1p/Aga2p
T1 sequence (P01903 with tags, fused parts or gaps): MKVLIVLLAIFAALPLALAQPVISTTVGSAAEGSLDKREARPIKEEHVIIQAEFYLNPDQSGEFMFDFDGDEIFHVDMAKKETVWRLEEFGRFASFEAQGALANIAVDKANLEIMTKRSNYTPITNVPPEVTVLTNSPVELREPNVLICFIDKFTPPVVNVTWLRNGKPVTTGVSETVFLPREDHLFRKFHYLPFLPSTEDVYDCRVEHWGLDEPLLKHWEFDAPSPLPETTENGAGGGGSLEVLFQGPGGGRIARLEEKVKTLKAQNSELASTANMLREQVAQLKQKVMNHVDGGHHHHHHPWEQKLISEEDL
T1 sequence (P01911 with tags, fused parts or gaps with the stated changes): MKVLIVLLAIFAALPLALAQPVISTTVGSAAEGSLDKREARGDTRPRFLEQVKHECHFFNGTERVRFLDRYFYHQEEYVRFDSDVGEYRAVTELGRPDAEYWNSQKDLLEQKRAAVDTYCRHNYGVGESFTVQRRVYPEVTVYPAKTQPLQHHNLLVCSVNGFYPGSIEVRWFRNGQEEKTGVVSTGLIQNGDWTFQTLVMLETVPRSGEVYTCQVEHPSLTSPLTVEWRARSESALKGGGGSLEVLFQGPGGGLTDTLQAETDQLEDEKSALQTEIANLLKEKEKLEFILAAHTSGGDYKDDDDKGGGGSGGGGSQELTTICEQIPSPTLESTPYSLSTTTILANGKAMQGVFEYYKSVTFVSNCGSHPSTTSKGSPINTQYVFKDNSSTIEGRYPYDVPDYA
T1 sequence (P32323 25-725 partner): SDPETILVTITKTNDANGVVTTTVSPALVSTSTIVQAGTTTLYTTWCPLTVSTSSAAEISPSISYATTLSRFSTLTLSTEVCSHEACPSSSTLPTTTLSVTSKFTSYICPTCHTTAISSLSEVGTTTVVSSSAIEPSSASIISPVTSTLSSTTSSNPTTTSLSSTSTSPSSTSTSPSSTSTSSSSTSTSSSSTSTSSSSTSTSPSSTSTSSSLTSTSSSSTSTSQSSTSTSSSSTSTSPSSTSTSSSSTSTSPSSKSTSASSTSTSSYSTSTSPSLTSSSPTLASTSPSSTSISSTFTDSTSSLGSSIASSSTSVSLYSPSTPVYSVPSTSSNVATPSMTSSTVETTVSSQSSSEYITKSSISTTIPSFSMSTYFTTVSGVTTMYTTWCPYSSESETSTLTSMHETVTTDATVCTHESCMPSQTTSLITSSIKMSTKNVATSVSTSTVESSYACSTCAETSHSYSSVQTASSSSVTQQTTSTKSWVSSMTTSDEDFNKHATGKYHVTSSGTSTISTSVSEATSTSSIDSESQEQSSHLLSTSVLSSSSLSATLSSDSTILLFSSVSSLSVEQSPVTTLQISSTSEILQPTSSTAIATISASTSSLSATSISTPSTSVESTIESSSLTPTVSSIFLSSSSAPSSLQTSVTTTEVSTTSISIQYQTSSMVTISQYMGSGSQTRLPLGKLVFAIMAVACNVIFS

[2] = biological target: T2, “empty” DQ6 (DQA1*01:02/DQB1*06:02) on yeast (Homo sapiens, UniProt P01909+P01920); assay: RIPPA competition assay, yeast displaying “empty” DQ6, HCRT 15-mer peptides; assay type: binding; settings: for DQ6 binding (in words): method not given, possible false positives
T2 construct: A PCR fragment carrying the extracellular domain of HLA-DQA1*0102 with C-terminal Fos was cloned into ptDR1; A second PCR fragment carrying the extracellular domain of HLA-DQB1*0602 with C-terminal Jun was cloned into pDQ6α; Syn-pre-pro leader (secretion leader) (N); expressed in transfected cells; host or cells: Saccharomyces cerevisiae EBY100, surface display via Aga1p/Aga2p
T2 sequence (P01909 with tags, fused parts or gaps with the stated changes): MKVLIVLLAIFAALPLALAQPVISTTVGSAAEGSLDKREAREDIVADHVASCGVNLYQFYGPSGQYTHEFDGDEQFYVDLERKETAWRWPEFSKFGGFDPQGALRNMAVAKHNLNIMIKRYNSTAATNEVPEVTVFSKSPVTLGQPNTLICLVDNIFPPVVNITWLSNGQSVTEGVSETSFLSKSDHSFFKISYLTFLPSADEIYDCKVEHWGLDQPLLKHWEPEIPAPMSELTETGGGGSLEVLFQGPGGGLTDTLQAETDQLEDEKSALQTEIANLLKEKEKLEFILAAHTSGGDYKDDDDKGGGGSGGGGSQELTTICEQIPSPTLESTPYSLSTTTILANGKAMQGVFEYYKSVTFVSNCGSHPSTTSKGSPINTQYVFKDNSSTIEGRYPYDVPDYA
T2 sequence (P01920 with tags, fused parts or gaps with the stated changes): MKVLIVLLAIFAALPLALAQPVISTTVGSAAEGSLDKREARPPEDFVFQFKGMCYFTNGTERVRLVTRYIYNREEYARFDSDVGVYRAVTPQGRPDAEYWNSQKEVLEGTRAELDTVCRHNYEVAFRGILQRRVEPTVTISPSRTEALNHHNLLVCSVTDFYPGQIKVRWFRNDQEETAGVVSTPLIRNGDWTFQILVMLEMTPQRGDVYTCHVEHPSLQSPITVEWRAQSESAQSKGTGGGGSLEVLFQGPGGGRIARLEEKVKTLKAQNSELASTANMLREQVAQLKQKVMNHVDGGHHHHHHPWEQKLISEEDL
T2 sequence (P32323 25-725 partner): as the sequence (P32323 25-725 partner) above
Method: FIGS. 4A-4C. RIPPA identified all DQ6 binders from HCRT. FIG. 4A. Yeast expressing “empty” DQ6 was incubated with 20 μM HCRT1-13-Bio and 200 μM of the indicated non-biotinylated HCRT 15-mer peptide at pH 5.0, 30° C. for 20 hours and analyzed by flow cytometry. % Competition=100%−% binding (% binding as calculated in FIG. 3E). Error bars represent SEM from three independent experiments. Bolded letters denote previously identified 9-aa DQ6-binding registers^4, 5, 42: […], SSGAAAQPL, NHAAGILTL and NHAAGILTM, respectively. HCRT49-63 or HCRT81-95 covers <8 aa of the previously determined registers. Binding ranks for each HCRT peptide predicted by NetMHCIIpan-4.0 (trained on both elution and binding data) are shown as 100-% rank to the left. FIGS. 4B-4C. Correlation analysis for binding data acquired using “empty” DQ6 on yeast versus soluble CLIP/DQ6 protein (FIG. 4B) or versus NetMHCIIpan-4.0 prediction (FIG. 4C). Arrows indicate peptides that show binding in one method but not the other in the comparison. Open circles in FIG. 4B match open bars in FIG. 4A, indicating ligands identified by both empirical methods.
6×10^5 galactose-induced yeast were incubated at pH 5.0, 30° C. for 20 hours with 20 μM biotinylated indicator peptides in the presence of various concentrations of a competitor peptide to determine an appropriate competitor concentration for a competition assay. […] After incubation, the yeast cells were washed with PBS+1% BSA, stained with streptavidin-AF647 and analyzed by flow cytometry as described above. […]
Sufficient amounts of galactose-induced yeast cells displaying “empty” DQ6 were collected by centrifugation at 2,500 g for 3 min and resuspended in the 40 mM citrate buffer (pH 5.0) at a density of 1.5×10^4 cells μl^−1. […] DQ6-associated HCRT1-13-Bio was labeled with streptavidin-AF647 and analyzed by flow cytometry as described above. The binding of a competitor peptide to “empty” DQ6 on yeast was quantified as % competition=100%−[(MFIwith competitor−background)/(MFIwithout competitor−background)]×100%.

| Substance | % competition [1] | DQ6 binding (in words) [2] | other results |
| --- | --- | --- | --- |
| 5862-888: DR4 ligand peptide from the SARS-CoV-2 S protein (label probably misprinted) (PPLLTDEMIAQYTSALL) | ~75% |  |  |
| HCRT49-63: 15-mer overlapping peptide derived from prepro-HCRT (hypocretin precursor) (LYELLHGAGNHAAGI; UniProt O43612 49-63, looked up, fragment) |  | bound DQ6 |  |
| HCRT81-95: 15-mer overlapping peptide derived from prepro-HCRT (hypocretin precursor) (QRLLQASGNHAAGIL; UniProt O43612 81-95, looked up, fragment) |  | bound DQ6 |  |
| HCRT89-103: 15-mer overlapping peptide derived from prepro-HCRT (hypocretin precursor) (NHAAGILTMGRRAGA) |  |  | % competition ([2]; 200 μM competitor vs 20 μM HCRT1-13-Bio, pH 5.0, 30° C., 20 hours): > 75% |
| S764-780: 17-mer overlapping peptide derived from the SARS-CoV-2 S protein (NRALTGIAVEQDKNTQE) | < 50% |  |  |
| S1058-1074: 17-mer overlapping peptide derived from the SARS-CoV-2 S protein (HGVVFLHVTYVPAQEKN) | ~75% |  |  |
